{"source": "patent US11697680B2", "about": "“Anti-GP73 antibodies and immunoconjugates” (CUREAB GMBH, priority 2016, dated 2023)", "molecules": {"B1": {"name": "G2-1: scFv clone with human IgG1 heavy and human Igk light constant regions; VH/VL SEQ ID NO: 10 and 11; binds rGP73 (antibody, V domains shown)", "VH": "EVQLLESGGGVVQPGRSLRLSCAASGFTFSSYAMSWVRQAPGKGLEWVSVISYDGSNKAYADSVKGRFTISRDNSKNTLYLQMNSLRAEDTAVYYCARGRSYYDSSGYLFDYWGQGTLVTVSS", "VL": "DIQMTQPHSVSESVGKTVIITCTGGGGSIDTNYVQWYQQRPGSAPVTLIYEDDQRPFGVPDRFSAAIDTSSSSASLTISGLTAEDEATYYCQSSHSTAVVFGGGTKVEIK", "modifications": "human IgG1 and Igk constant regions not cited; G2-1 heavy chain variable region (VH); G2-1 light chain variable region (VL)"}, "B2": {"name": "G2-2opti (IgG2a): chimeric human/murine version of G2-2opti with murine constant domains (antibody, V domains shown)", "VH": "QVQLVQSGGGVVQPGRSLRLSCAASGFTFSSYGMHWVRQAPGKGLEWVAVISYDGSNKYYADSVKGRFTISRDNSKNTLYLQMNSLRAEDTAVYYCAREGSAGMDVWGQGTTVTVSS", "VL": "QAVLTQPSSLSASPGASASLTCTLRSDISVGFHRIYWYQQKPGSPPQYLLRYKSDSDKQQGSGVPSRFSGSKDASANAGILLISGLQSDDEADYYCVIWHTSGVVFGGGTKLTVL"}}, "key": {"HuH7 cells": {"test_system": "HuH7 cells", "assay": "Efficacy of G2-2-ADC in HuH7 cells (cell viability, PrestoBlue)", "type": "cell-based, human", "settings": "medium changed after one hour, viability after 98 hours, read-out: IC50 as determined by drug component", "protocol": "FIG. 14 An antibody drug conjugate consisting of MMAF attached to a Malamide exchange linker linked to G2-2 was added to HuH7 cells.\nAn antibody drug conjugate consisting of MMAF attached by a malameide exchange linker to G2-2 was added to the cell culture medium of HUH7 cells in different concentrations. Medium was changed after one hour. Cell viability was analyzed after 98 hours using PrestoBlue reagent (ThermoFischer)."}, "GP73 peptide: […]": {"target": "T1, GP73 peptide: […] (Homo sapiens, UniProt Q8NBJ4)", "T1 construct": "GP73 peptide: […]", "assay": "Biacore surface plasmon resonance, data fit for 1:1 binding", "settings": "Biacore 1:1 binding fit; GP73 peptide SSRSVDLQTRIMELEGRVRR", "protocol": "In one embodiment, Kd is measured using surface plasmon resonance assays using a BIACORE®-2000 or a BIACORE®-3000 (BIAcore, Inc., Piscataway, N.J.) at 25° C. with immobilized antigen CM5 chips at […] response units (RU). Briefly, carboxymethylated dextran biosensor chips (CM5, BIACORE, Inc.) are activated with N-ethyl-N′-(3-dimethylaminopropyl) carbodiimide hydrochloride (EDC) and N-hydroxysuccinimide (NHS) according to the supplier's instructions. Antigen is diluted with 10 mM sodium acetate, pH 4.8, to 5 μg/ml (−0.2 μM) before injection at a flow rate of 5 μl/minute to achieve approximately 10 response units (RU) of coupled protein. Following the injection of antigen, 1 M ethanolamine is injected to block unreacted groups. For kinetics measurements, two-fold serial dilutions of antibody (0.58 nM to 200 nM) are injected in PBS with 0.05% polysorbate 20 (TWEEN-20™) surfactant (PEST) at 25° C. at a flow rate of approximately 25 μl/min. Association rates (kon) and dissociation rates (koff) are calculated using a simple one-to-one Langmuir binding model (BIACORE® T100 Evaluation Software) by simultaneously fitting the association and dissociation sensorgrams. The equilibrium dissociation constant (Kd) is calculated as the ratio koff/kon. See, e.g., Chen et al., J. Mol. Biol. 293:865-881 (1999). If the on-rate exceeds […] s^−1 by the surface plasmon resonance assay above, then the on-rate can be determined by using a fluorescent quenching technique that measures the increase or decrease in fluorescence emission intensity (excitation=295 nm; emission=340 nm, 16 nm band-pass) at 25° C. of a 20 nM anti-antigen antibody in PBS, pH 7.2, in the presence of increasing concentrations of antigen as measured in a spectrometer, such as a stop-flow equipped spectrophometer (Aviv Instruments) or a 8000-series SLM-AMINCO™ spectrophotometer (ThermoSpectronic) with a stirred cuvette."}, "[1]": {"target": "T2, Furin cleavage of recombinant GP73-HIS (Homo sapiens, UniProt Q8NBJ4)", "T2 construct": "purchased Biolegend", "T2 sequence (Q8NBJ4 36-401 limits assumed)": "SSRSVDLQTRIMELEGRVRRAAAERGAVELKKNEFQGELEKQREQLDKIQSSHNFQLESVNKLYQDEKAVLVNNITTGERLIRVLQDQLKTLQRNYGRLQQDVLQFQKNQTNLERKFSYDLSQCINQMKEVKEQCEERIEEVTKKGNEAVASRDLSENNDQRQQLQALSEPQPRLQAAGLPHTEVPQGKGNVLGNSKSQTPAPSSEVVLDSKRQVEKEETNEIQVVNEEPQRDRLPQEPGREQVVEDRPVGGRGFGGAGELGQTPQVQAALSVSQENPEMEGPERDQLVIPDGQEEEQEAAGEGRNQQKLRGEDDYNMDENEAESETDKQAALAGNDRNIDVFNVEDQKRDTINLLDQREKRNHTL", "assay": "Furin cleavage of GP73-HIS depending on antibody binding (capture ELISA)", "type": "biochemical", "settings": "3 U and 1.5 U of Furin; 2 hours at 30° C.", "source_text": "Measurements of Furin cleavage of GP73 using a range from 0 units to 3 units of Furin are depicted.\nTesting of Furin cleavage exploits the fact that antibodies G2-1 and G2-2 bind GP73 N-terminal of or at the furin cleavage site 56R whereas recombinant GP73 with C-terminal HIS tag (GP73-HIS) is detected by anti HIS antibody at the C-terminus of GP73. Plate bound anti human IgG can capture G2-1 or G2-2, which binds GP73-HIS. If furin cleavage occurs in a setting where G2-1 or G2-2 have already bound to GP73-HIS, only N-terminal part of GP73 will reside at the G2 antibodies. In contrast, if furin cleavage is hindered by G2 antibodies, GP73-HIS can be detected by an anti HIS antibody.\nFurin cleavage was carried out in 1.5 ml tubes. To test if G2 antibodies can hinder furin cleavage recombinant GOLPH-HIS protein (Biolegend) and G2-2 or G2-1 was incubated for 2 hours in 100 mM HEPES and 1 mM CaCl2 buffer pH 7.5 to allow antibody binding to GP73. […]\nFrom each reaction 2×100 ul were transferred to wells of a 96 well plate that had been coated over night with anti human IgG and was blocked with 1% gelatine in PBS. After one hour incubation at room temperature the plate was washed, incubated with anti HIS-hrp antibody for one hour, washed again, incubated with a chromogenic substrate (TMB Amersham) to detect peroxidase, stopped and read at 450 nm."}, "peptide AA 36-55 of GP73 [2]": {"target": "T3, peptide AA 36-55 of GP73 (Homo sapiens, UniProt Q8NBJ4)", "assay": "pH dependent peptide ELISA", "type": "binding", "settings": "pH range of 7.4 to 5.4", "protocol": "A peptide ELISA was performed to test for pH dependency of binding to peptide AA 36-55 of GP73.\n(§1) ELISA was carried out in 96 well plates coated overnight with biotinylated peptide and blocked with 2% gelatine. Horse radish peroxidase labeled antibodies G2-1 (G2-1-HRP) or G2-2 (G2-2-HRP) were applied and incubated for 1.5 hours. For competition testing non labeled G2-1 or G2-2 was added at high concentration. For pH dependent binding the antibodies were applied in phosphate buffer pH 4.4, 5.4, 6.4 or 7.4. After extensive washing a chromogenic substrate (TMB Amersham) was added to detect peroxidase. The reaction was stopped and absorbance was read at 450 nm."}, "peptide AA 36-55 of GP73 [3]": {"target": "T3, peptide AA 36-55 of GP73", "assay": "Competition peptide ELISA with HRP-labeled antibodies", "type": "binding", "settings": "unlabeled competing antibody at high concentration; binding antibody G2-2-HRP", "protocol": "A peptide ELISA was performed using horse radish peroxidase labeled G2-1 (G2-1-HRP) or G2-2 (G2-2-HRP) as binding antibodies and G2-1 or G2-2 as competing antibodies. […] Binding to peptide AA 36-55 of GP73 served as positive control (filled circle), negative control was binding to an unrelated peptide (filled diamond) as described in Example 5.\nas §1"}, "[4]": {"target": "T4, GP73 AVRR (GP73 AA36 to 401, R52A) (Homo sapiens, UniProt Q8NBJ4, R52A)", "T4 construct": "contains GP73-10×His AVRR, encompassing GP73 AA36 to 401 (GP73 AVRR); made in house; host or cells: 293HEK cells, isolated from the supernatant by IMAC", "T4 sequence (Q8NBJ4 with tags, fused parts or gaps R52A)": "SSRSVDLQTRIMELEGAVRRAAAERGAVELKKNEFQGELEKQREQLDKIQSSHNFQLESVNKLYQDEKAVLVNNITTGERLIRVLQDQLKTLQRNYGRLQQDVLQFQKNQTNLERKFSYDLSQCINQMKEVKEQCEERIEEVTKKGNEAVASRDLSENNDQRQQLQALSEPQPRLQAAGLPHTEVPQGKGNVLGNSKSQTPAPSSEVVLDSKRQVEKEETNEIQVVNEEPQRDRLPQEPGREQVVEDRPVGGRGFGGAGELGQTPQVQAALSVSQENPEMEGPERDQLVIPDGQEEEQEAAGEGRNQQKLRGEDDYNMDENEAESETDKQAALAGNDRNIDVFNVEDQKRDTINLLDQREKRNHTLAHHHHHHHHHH", "assay": "Protein ELISA on GP73-His AVRR", "type": "binding", "settings": "plates coated with GP73 AVRR; absorbance 450 nm", "protocol": "(§2) 293HEK cells were either transfected with cDNA containing full length GP73 AA 1-401 C-terminal tagged with 10×HIS-Tag or with a GP73 ΔN variant containing AA 36 to 401 with a R52A mutation, resulting in a non-cleavable variant, C-terminal tagged with 10×HIS-Tag (GP73-His AVRR). In both constructs a secretion signal was added in frame to the N-terminus. The supernatant of the full length GP73 expressing cells contains sGP73-10×His, encompassing GP73 AA56 to 401 (sGP73; SEQ ID NO: 40), that has been proteolytically cleaved by furin or another protease at AA 55. The supernatant of the GP73 ΔN variant contains GP73-10×His AVRR, encompassing GP73 AA36 to 401 (GP73 AVRR; SEQ ID NO: 41) as shown in FIG. 20. Only the latter of the two constructs contains the rGP73 epitope. Both proteins were isolated by IMAC.\n(§3) ELISA was carried out in 96 well plates coated overnight with sGP73 or GP73 AVRR and blocked with 2% gelatine. Antibodies 8A10, G2-2opti (IgG2a) or isotype control antibody were applied, incubated for 1.5 hours and washed away. A secondary Horse radish peroxidase labeled anti mouse antibody was added for 1 hour and after extensive washing a chromogenic substrate (TMB Amersham) was applied to detect peroxidase."}, "sGP73 (GP73 AA56 to 401)": {"target": "T5, sGP73 (GP73 AA56 to 401) (Homo sapiens, UniProt Q8NBJ4)", "T5 construct": "contains sGP73-10×His, encompassing GP73 AA56 to 401 (sGP73); made in house; host or cells: 293HEK cells, isolated from the supernatant by IMAC", "T5 sequence (Q8NBJ4 with tags, fused parts or gaps)": "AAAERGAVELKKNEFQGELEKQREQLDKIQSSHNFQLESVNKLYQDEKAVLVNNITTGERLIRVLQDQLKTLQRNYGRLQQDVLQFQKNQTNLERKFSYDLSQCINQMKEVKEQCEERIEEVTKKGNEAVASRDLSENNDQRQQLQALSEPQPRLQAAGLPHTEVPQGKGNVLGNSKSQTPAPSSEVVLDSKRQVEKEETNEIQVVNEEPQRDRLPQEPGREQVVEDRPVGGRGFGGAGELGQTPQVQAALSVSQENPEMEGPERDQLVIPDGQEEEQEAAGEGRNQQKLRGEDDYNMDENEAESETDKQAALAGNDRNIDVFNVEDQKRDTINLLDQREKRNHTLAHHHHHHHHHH", "assay": "Protein ELISA on sGP73-His", "type": "binding", "settings": "plates coated with sGP73; absorbance 450 nm", "protocol": "as §2, §3"}}, "note": "Where a SMILES comes first, the peptide text is derived from it. [ ]: non-standard residue; d: D form. Dolaproine = CO[C@@H]([C@@H]1CCCN1)[C@@H](C)C(=O)O; Dil = CC[C@H](C)[C@H](NC)[C@@H](CC(=O)O)OC; NMeV = CN[C@H](C(=O)O)C(C)C", "data": [{"molecule": "CC[C@H](C)[C@@H]([C@@H](CC(=O)N1CCC[C@H]1[C@H](OC)[C@@H](C)C(=O)N[C@@H](Cc1ccccc1)C(=O)O)OC)N(C)C(=O)[C@@H](NC(=O)[C@@H](NC)C(C)C)C(C)C", "note": "[MMAF, monomethylauristatin F] (H-[NMeV]V[Dil][Dolaproine]F-OH)", "values": [{"measurement": "IC50", "setting": "HuH7 cells", "value": 277, "unit": "nM"}]}, {"molecule": "B1", "values": [{"measurement": "koff, measurement 1 + 2 mean", "setting": "GP73 peptide: […]", "value": 0.001981, "unit": "s⁻¹"}, {"measurement": "kon, measurement 1 + 2 mean", "setting": "GP73 peptide: […]", "value": 635200, "unit": "M⁻¹ s⁻¹"}, {"measurement": "Furin cleavage of GP73 after preincubation with antibody", "setting": "[1]", "value": "significant reduction in Furin cleavage"}, {"measurement": "pH dependency of binding to peptide AA 36-55 of GP73", "setting": "peptide AA 36-55 of GP73 [2]", "value": "Stable binding"}, {"measurement": "competition with G2-2-HRP for peptide binding", "setting": "peptide AA 36-55 of GP73 [3]", "value": "Competitive inhibition"}]}, {"molecule": "B2", "values": [{"measurement": "binding to GP73 AVRR (ELISA)", "setting": "[4]", "value": "binds to GP73 AVRR"}, {"measurement": "binding to sGP73 (ELISA)", "setting": "sGP73 (GP73 AA56 to 401)", "value": "not to sGP73"}]}]}
